Assay results from the RNAGym collection of RNA variant scans (doi:10.7554/elife.90254).

B1: LINE1-full (parent)
chain: UACGUAGGUGGUUUUCCCCUGAUAGUGCUAAGGGGGCCUGGAAGUUUGGACUGGGCAGAGCUCAACACAGCGUGGCAAAGUGGCUGUGGCUAGACUGCCUCUCUGGAUUCCUCGUCACUCAGCAGGGCAUCUCUGAGAGAAAUGCC

Variants of: B1
Assay: self-cleavage, relative activity (ratio to wild type); higher = more cleavage; in vitro, sequencing; the parent is a self-cleaving ribozyme

| Variant | self-cleavage |
| --- | --- |
| C56U U115C | 0.19 |
| C56U A77G | 0.16 |
| A57G A140U | 1.05 |
| C56U A136U | 0.13 |
| A57G U112C | 0.68 |
| A57G G75C | 0.35 |
| A57G G75A | 0.73 |
| A57U A142U | 0.08 |
| A57U A142G | 0.12 |
| A57U A78U | 0.03 |
| C56U A141G | 0.14 |
| A57G U87G | 0.14 |
| A57G U87C | 0.11 |
| A57G A107U | 0.92 |
| A57C A136G | 0.05 |
| A57U A107U | 0.02 |
| A57U A107G | 0.14 |
| A57G A117G | 1.41 |
| A57G A124U | 0.76 |
| A57G A124G | 0.41 |
| A57G C128A | 0.12 |
| A57G C128U | 0.79 |
| A57G U108A | 0.8 |
| A57C U132A | 0 |

| Variant | self-cleavage |
| --- | --- |
| A57C U132G | 0 |
| A57U C120A | 0.05 |
| A57U A69U | 0 |
| A57U A69G | 0.08 |
| A57C U119A | 0.06 |
| A57U A141G | 0.11 |
| A57G A141G | 0.72 |
| A57U C84A | 0.21 |
| G55U G144A | 0.43 |
| A57G U130C | 1.3 |
| A57G U130A | 1.27 |
| A57G A69U | 0.07 |
| A57G A129G | 0.74 |
| C56G U91C | 0.05 |
| A57U C98G | 0.06 |
| A57G A138G | 1.12 |
| C56A U104C | 0.1 |
| A57U G58U | 0.04 |
| C56U G86A | 0.04 |
| A57G A94U | 0.19 |
| A57U A129G | 0.13 |
| A57U A117G | 0.09 |
| A57U A117U | 0.13 |
| A57U A117C | 0.28 |

| Variant | self-cleavage |
| --- | --- |
| C56U A59U | 0.11 |
| A57U G125A | 0.04 |
| A57C U104A | 0.18 |
| A57G C63U | 0.17 |
| C56A A141G | 0.07 |
| G55U U132C | 0.16 |
| G55U U115A | 0.14 |
| G55U U115C | 0.4 |
| A57G U91C | 0.4 |
| A57G U91A | 0.34 |
| A57C A138G | 0.22 |
| A57G A67U | 0.06 |
| A57U G126A | 0.07 |
| A57U G144A | 0.16 |
| C56U U85A | 0.04 |
| A57U A65G | 0.07 |
| A57U A138U | 0.12 |
| C56A U73C | 0.05 |
| A57G C120U | 1.54 |
| G55U A59G | 0.05 |
| C56A U143A | 0.09 |
| A57U G83A | 0.03 |
| A57C A121U | 0.03 |
| C56A U100C | 0.1 |

| Variant | self-cleavage |
| --- | --- |
| C56U A67G | 0.07 |
| A57U C61U | 0.03 |
| A57U C110A | 0.19 |
| A57U C110U | 0.05 |
| C56U A129G | 0.22 |
| A57C A92U | 0 |
| A57U U62C | 0.05 |
| A57U U62A | 0.03 |
| A57G U81C | 0.89 |
| A57G U81A | 1.16 |
| G55U U134C | 0.29 |
| C56U U100C | 0.44 |
| C56G A67G | 0 |
| A57G A65G | 0.1 |
| A57G A65U | 0.15 |
| G55U U85A | 0.03 |
| A57G G83C | 0.17 |
| C56A A121G | 0.03 |
| A57G C99A | 0.2 |
| A57G C99U | 0.13 |
| A57G U85C | 0.16 |
| A57G U85A | 0.13 |
| A57G U85G | 0.23 |
| C56U A138G | 0.31 |

| Variant | self-cleavage |
| --- | --- |
| C56U A138U | 0.1 |
| C56U A117C | 0.5 |
| A57G U102G | 0.19 |
| A57G U102A | 0.82 |
| A57U C66G | 0.05 |
| A57G C113U | 0.29 |
| A57U A64C | 0.06 |
| A57U G88A | 0.04 |
| A57U A94C | 0.1 |
| A57G U119C | 1.4 |
| A57G U134C | 0.93 |
| A57G U134G | 0.78 |
| A57G U134A | 0.62 |
| A57U A124U | 0.09 |
| G55U A121G | 0.37 |
| A57G U100A | 0.3 |
| A57G C84U | 0.11 |
| A57G G126A | 1.19 |
| A57G G106A | 1.04 |
| A57U A59G | 0.05 |
| A57C G72U | 0.03 |
| A57G A121G | 1.07 |
| A57U A77U | 0.05 |
| C56U C71U | 0.07 |

| Variant | self-cleavage |
| --- | --- |
| A57G U62A | 0.05 |
| A57G U62C | 0.08 |
| C56U A124G | 0.08 |
| C56U A142U | 0.23 |
| C56A U96C | 0.05 |
| A57G G105A | 0.48 |
| A57U G106U | 0.09 |
| A57G A78G | 0.65 |
| A57G U96G | 0 |
| A57C A69U | 0.08 |
| C56U U112A | 0.1 |
| A57U A67U | 0.02 |
| C56G A92U | 0.04 |
| A57U A140G | 0.11 |
| A57U A140U | 0.2 |
| A57U C90U | 0.02 |
| A57C U130A | 0.03 |
| G55U A117U | 0.46 |
| G55U A117G | 0.3 |
| C56U U87C | 0.11 |
| A57U A121U | 0.12 |
| A57U A121G | 0.15 |
| A57G G58A | 0.03 |
| A57U C63A | 0.04 |

| Variant | self-cleavage |
| --- | --- |
| C56U C111U | 0.19 |
| A57C G86A | 0.04 |
| A57C U102C | 0.1 |
| C56U U134G | 0.28 |
| A57G G60C | 0.11 |
| A57G A136U | 0.95 |
| A57U A136C | 0.1 |
| A57C A77U | 0.08 |
| A57C | 0.08 |
| A57U | 0.1 |
| A57G | 0.88 |
| A57G C101U | 1.13 |
| A57G U115A | 0.81 |
| A57G U115C | 1.3 |
| A57G U73A | 0.37 |
| A57G U109C | 0.49 |
| A57G G139U | 0.48 |
| A57G G139A | 0.75 |
| A57U C99U | 0.04 |
| A57G U104C | 1.11 |
| A57G C66U | 0.05 |
| A57U G127A | 0.1 |
| A57G C98U | 0.19 |
